# Test results published in article PMC11499148.
# Biological target: soluble human FcRn (human) (UniProt P55899)
# Assay: SPR; pH 6.0
row,Kd [nM],Substance
1,64,hAK23-IgG4-DHS
2,215,hAK23-IgG4-WT
3,137,hAK23-IgG1-DHS
4,334,hAK23-IgG1-WT
